{"source": "patent US20240218374", "key": {"[1]": {"molecular_target": "Spike S1 & S2 ECD (SARS-CoV-2) (UniProt P0DTC2)", "assay": "filter"}, "[2]": {"molecular_target": "authentic SARS-CoV-2 virus (VIC01, Clade B) spike (SARS-CoV-2) (UniProt P0DTC2)", "assay": "cell_activity", "settings": "Y=Tyr-dU, p=Nap-dC; printed GGGAYApYAYGpGYppGAppGpYpGGApG [Tyr-dU: 5,8,10,14,23; Nap-dC: 7,12,15,16,19,20,22,24,28]"}, "[3]": {"settings": "Y=Tyr-dU, p=Nap-dC, SB18T0.01, 37 C"}}}
{"sequence": "GGGANANNANGNGNNNGANNGNNNGGANG [26874-29_140]", "values": [{"measurement": "Kd", "setting": "[1]; iBudU at 10, other dU Tyr-dU, dC Nap-dC, SB18T0.01, 37 C", "value": 0.47, "unit": "nM"}]}
{"sequence": "GGGANANNANGNGNNNGANNGNNNGGANG [26874-29_142]", "values": [{"measurement": "Kd", "setting": "[1]; iBudU at 14, other dU Tyr-dU, dC Nap-dC, SB18T0.01, 37 C", "value": 0.37, "unit": "nM"}]}
{"sequence": "GGGANANNANGNGNNNGANNGNNNGGANG [26874-29_144]", "values": [{"measurement": "Kd", "setting": "[1]; iBudU at 23, other dU Tyr-dU, dC Nap-dC, SB18T0.01, 37 C", "value": 0.57, "unit": "nM"}]}
{"sequence": "GGGANANNANGNGNNNGANNGNNNGGANG [26874-29_146]", "values": [{"measurement": "Kd", "setting": "[1]; MBndU at 5, other dU Tyr-dU, dC Nap-dC, low plateau", "value": 0.61, "unit": "nM"}]}
{"sequence": "GGGANANNANGNGNNNGANNGNNNGGANG [26874-29_147]", "values": [{"measurement": "Kd", "setting": "[1]; BPEdU at 5, other dU Tyr-dU, dC Nap-dC, assigned, low plateau", "value": 0.44, "unit": "nM"}]}
{"sequence": "GGGANANNANGNGNNNGANNGNNNGGANG [26874-29_148]", "values": [{"measurement": "Kd", "setting": "[1]; MBndU at 8, other dU Tyr-dU, dC Nap-dC, low plateau", "value": 0.46, "unit": "nM"}]}
{"sequence": "GGGANANNANGNGNNNGANNGNNNGGANG [26874-29_149]", "values": [{"measurement": "Kd", "setting": "[1]; BPEdU at 8, other dU Tyr-dU, dC Nap-dC, low plateau", "value": 0.47, "unit": "nM"}]}
{"sequence": "GGGANANNANGNGNNNGANNGNNNGGANG [26874-29_150]", "values": [{"measurement": "Kd", "setting": "[1]; Y=Tyr-dU, p=Nap-dC, position 10 MBn-dU, Kd/Kd_20 38", "value": 16, "unit": "nM"}]}
{"sequence": "GGGANANNANGNGNNNGANNGNNNGGANG [26874-29_151]", "values": [{"measurement": "Kd", "setting": "[1]; BPEdU at 10, other dU Tyr-dU, dC Nap-dC, SB18T0.01, 37 C", "value": 0.78, "unit": "nM"}]}
{"sequence": "GGGANANNANGNGNNNGANNGNNNGGANG [26874-29_152]", "values": [{"measurement": "Kd", "setting": "[1]; MBndU at 14, other dU Tyr-dU, dC Nap-dC, SB18T0.01, 37 C", "value": 0.33, "unit": "nM"}]}
{"sequence": "GGGANANNANGNGNNNGANNGNNNGGANG [26874-29_153]", "values": [{"measurement": "Kd", "setting": "[1]; Y=Tyr-dU, p=Nap-dC, position 14 BPE-dU, Kd/Kd_20 0.28", "value": 0.11, "unit": "nM"}]}
{"sequence": "GGGANANNANGNGNNNGANNGNNNGGANG [26874-29_154]", "values": [{"measurement": "Kd", "setting": "[1]; MBndU at 23, other dU Tyr-dU, dC Nap-dC, SB18T0.01, 37 C", "value": 0.43, "unit": "nM"}]}
{"sequence": "GGGANANNANGNGNNNGANNGNNNGGANG [26874-29_155]", "values": [{"measurement": "Kd", "setting": "[1]; BPEdU at 23, other dU Tyr-dU, dC Nap-dC, SB18T0.01, 37 C", "value": 0.17, "unit": "nM"}]}
{"sequence": "GGGANANNANGNGNNNGANNGNNNGGANG [OH-26874-29_181]", "values": [{"measurement": "Kd", "setting": "[1]; 2Nap-dC at 7, other dC Nap-dC, dU Tyr-dU", "value": 0.2, "unit": "nM"}]}
{"sequence": "GGGANANNANGNGNNNGANNGNNNGGANG [OH-26874-29_182]", "values": [{"measurement": "Kd", "setting": "[1]; 2Nap-dC at 12, other dC Nap-dC, dU Tyr-dU", "value": 0.41, "unit": "nM"}]}
{"sequence": "GGGANANNANGNGNNNGANNGNNNGGANG [OH-26874-29_315]", "values": [{"measurement": "Kd", "setting": "[1]; Y=Tyr-dU, p=Nap-dC, position 12 PBn-dC, protein construct inferred", "value": 0.16, "unit": "nM"}]}
{"sequence": "GGGANANNANGNGNNNGANNGNNNGGANG [OH-26874-29_328]", "values": [{"measurement": "Kd", "setting": "[1]; Y=Tyr-dU, p=Nap-dC, position 20 DPP-dC", "value": 0.038, "unit": "nM"}]}
{"sequence": "GGGANANNANGNGNNNGANNGNNNGGANG [OH-26874-29_330]", "values": [{"measurement": "Kd", "setting": "[1]; Y=Tyr-dU, p=Nap-dC, position 24 DPP-dC, protein construct inferred", "value": 0.11, "unit": "nM"}]}
{"sequence": "GGGANANNANGNGNNNGANNGNNNGGANG [OH-26874-29_331]", "values": [{"measurement": "Kd", "setting": "[1]; Y=Tyr-dU, p=Nap-dC, position 28 DPP-dC, protein construct inferred", "value": 0.13, "unit": "nM"}]}
{"sequence": "GGGANANNANGNGNNNGANNGNNNGGANG [OH-26874-29_332]", "values": [{"measurement": "Kd", "setting": "[1]; Y=Tyr-dU, p=Nap-dC, position 7 DCPE-dC, protein construct inferred", "value": 0.13, "unit": "nM"}]}
{"sequence": "GGGANANNANGNGNNNGANNGNNNGGANG [OH-26874-29_333]", "values": [{"measurement": "Kd", "setting": "[1]; Y=Tyr-dU, p=Nap-dC, position 12 DCPE-dC, protein construct inferred", "value": 0.11, "unit": "nM"}]}
{"sequence": "GGGANANNANGNGNRNGANNGNNNGGANG [OH-26874-29_192]", "values": [{"measurement": "Kd", "setting": "[1]; Y=Tyr-dU, p=Nap-dC, position 15 PP-dC, protein construct inferred", "value": 1000, "unit": "nM"}]}
{"sequence": "GGGATACTATGCGTCCGACCGCTCGGACG [26874-29_20 (SL1111_20)]", "values": [{"measurement": "IC50", "setting": "[2]", "value": 1.1, "unit": "nM"}]}
{"sequence": "GNGNAANGNANNNNANNNGGNNNGAANGNG [26876-13_15]", "values": [{"measurement": "Kd", "setting": "[1]; [3]", "value": 0.26, "unit": "nM"}]}
{"sequence": "NANNANGNGNNNGANNGNNNGGANG [26874-29_24]", "values": [{"measurement": "Kd", "setting": "[1]; [3]", "value": 2.1, "unit": "nM"}]}
{"sequence": "NANNANGNGNNNGANNGNNNGGANGG [26874-29_22]", "values": [{"measurement": "Kd", "setting": "[1]; [3]", "value": 1.4, "unit": "nM"}]}
